Data: article PMC9482650, “Quantitative fragmentomics allow affinity mapping of interactomes” (Nature Communications, 2022)

Key:
Experiment in all cases: holdup assay
Design in all cases: key: below the threshold = too weak to quantify, mostly under pKd 3.1 to 4
[1] = target: T1, DFNB31_3, Q9P202
T1 sequence (Q9P202 811-907, limits assumed, looked up): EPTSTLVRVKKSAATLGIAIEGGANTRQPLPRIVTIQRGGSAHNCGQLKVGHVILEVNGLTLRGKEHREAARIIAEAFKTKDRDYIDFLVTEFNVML

[2] = target: DLG2_2, Q15700
[3] = target: DLG4_1, P78352
DLG4_1, P78352, sequence (P78352 62-152): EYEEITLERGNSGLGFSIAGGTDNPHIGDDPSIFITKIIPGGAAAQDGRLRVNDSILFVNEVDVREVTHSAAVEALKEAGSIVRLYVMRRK

[4] = target: DLG4_2, P78352
DLG4_2, P78352, sequence (P78352 155-259): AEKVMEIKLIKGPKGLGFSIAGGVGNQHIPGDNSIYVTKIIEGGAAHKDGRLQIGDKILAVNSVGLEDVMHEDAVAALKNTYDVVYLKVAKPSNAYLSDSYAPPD

[5] = target: DLG5_1, Q8TDM6
DLG5_1, Q8TDM6, sequence (Q8TDM6 617-713): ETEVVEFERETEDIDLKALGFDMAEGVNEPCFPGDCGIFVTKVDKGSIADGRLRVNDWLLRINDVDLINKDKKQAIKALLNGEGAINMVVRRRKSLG

[6] = target: FRMPD2_3, Q68DX3
FRMPD2_3, Q68DX3, sequence (Q68DX3 1073-1166): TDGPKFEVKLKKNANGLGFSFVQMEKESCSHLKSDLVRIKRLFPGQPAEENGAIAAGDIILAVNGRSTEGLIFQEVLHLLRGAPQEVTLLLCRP

[7] = target: GORASP1, Q9BQQ3
GORASP1, Q9BQQ3, sequence (Q9BQQ3 1-208): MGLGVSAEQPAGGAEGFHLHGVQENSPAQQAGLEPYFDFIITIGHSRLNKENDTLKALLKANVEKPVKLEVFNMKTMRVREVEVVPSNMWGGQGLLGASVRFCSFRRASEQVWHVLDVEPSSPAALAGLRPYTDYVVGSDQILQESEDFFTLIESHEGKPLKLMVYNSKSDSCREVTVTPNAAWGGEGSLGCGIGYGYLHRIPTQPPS

[8] = target: GRID2IP_1, A4D2P6
GRID2IP_1, A4D2P6, sequence (A4D2P6 1-87): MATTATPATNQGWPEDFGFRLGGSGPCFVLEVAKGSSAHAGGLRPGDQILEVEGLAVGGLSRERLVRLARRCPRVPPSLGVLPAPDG

[9] = target: T2, GRIP1_5, Q9Y3R0
T2 sequence (Q9Y3R0 568-668, limits assumed, looked up): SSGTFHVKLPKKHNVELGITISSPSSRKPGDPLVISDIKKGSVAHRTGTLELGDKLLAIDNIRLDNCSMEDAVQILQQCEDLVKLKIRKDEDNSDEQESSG

[10] = target: IL16_1, Q14005
IL16_1, Q14005, sequence (Q14005 210-306): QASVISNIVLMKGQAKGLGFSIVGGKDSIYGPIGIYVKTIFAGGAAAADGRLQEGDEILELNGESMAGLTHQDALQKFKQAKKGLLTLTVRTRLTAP

[11] = target: Inadl_6, Q8NI35
Inadl_6, Q8NI35, sequence (Q8NI35 1058-1167): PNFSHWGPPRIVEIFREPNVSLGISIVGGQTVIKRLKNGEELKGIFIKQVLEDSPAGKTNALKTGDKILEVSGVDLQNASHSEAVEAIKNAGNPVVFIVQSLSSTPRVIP

[12] = target: Inadl_8, Q8NI35
Inadl_8, Q8NI35, sequence (Q8NI35 1425-1530): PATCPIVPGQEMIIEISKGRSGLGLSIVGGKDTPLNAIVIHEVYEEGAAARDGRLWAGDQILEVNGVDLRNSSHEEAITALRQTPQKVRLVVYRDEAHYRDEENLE

[13] = target: T3, LNX2_2, Q8N448
T3 sequence (Q8N448 334-432, limits assumed, looked up): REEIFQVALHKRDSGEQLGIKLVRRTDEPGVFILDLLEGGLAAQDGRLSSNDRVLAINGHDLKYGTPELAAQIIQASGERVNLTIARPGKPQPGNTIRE

[14] = target: MAGI2_2, Q86UL8
MAGI2_2, Q86UL8, sequence (Q86UL8 410-522): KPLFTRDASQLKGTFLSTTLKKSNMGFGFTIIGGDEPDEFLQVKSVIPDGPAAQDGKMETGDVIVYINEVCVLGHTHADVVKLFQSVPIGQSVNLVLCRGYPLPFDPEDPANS

[15] = target: MAGI2_6, Q86UL8
MAGI2_6, Q86UL8, sequence (Q86UL8 1141-1229): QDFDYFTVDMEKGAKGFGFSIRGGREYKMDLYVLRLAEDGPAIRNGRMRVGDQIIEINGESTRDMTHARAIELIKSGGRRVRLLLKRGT

[16] = target: T4, MPP2, Q14168
T4 sequence (Q14168 180-250, limits assumed, looked up): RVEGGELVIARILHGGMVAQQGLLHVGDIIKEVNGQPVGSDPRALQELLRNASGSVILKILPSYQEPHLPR

[17] = target: T5, NHERF3_1, Q5T2W1
T5 sequence (Q5T2W1 4-100, limits assumed, looked up): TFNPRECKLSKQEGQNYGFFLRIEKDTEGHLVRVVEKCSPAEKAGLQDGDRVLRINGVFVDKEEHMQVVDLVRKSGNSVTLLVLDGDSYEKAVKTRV

[18] = target: T6, NHERF3_3, Q5T2W1
T6 sequence (Q5T2W1 238-333, limits assumed, looked up): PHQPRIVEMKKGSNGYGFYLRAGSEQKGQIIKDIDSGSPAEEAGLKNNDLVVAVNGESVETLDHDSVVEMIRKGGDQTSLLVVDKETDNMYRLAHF

[19] = target: NHERF4_1, Q86UT5-2
NHERF4_1, Q86UT5-2, sequence (Q86UT5 other isoform, or with tags, fused parts or gaps): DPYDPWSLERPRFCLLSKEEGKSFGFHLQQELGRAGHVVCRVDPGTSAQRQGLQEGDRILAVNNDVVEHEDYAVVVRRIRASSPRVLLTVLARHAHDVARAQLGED

[20] = target: NOS1, P29475
NOS1, P29475, sequence (P29475 9-101): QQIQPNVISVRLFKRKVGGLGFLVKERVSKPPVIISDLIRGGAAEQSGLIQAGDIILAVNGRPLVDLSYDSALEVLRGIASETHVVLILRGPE

[21] = target: T7, PCLO, Q9Y6V0
T7 sequence (Q9Y6V0 4491-4600, limits assumed, looked up): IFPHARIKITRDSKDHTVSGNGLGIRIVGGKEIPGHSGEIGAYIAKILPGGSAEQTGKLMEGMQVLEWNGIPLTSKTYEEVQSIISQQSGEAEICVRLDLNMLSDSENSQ

[22] = target: PICK1, Q9NRD5
PICK1, Q9NRD5, sequence (Q9NRD5 17-115): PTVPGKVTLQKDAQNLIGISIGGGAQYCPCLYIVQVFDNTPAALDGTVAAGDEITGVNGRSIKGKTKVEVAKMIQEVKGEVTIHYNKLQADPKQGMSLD

[23] = target: PTPN3, P26045
PTPN3, P26045, sequence (P26045 505-587): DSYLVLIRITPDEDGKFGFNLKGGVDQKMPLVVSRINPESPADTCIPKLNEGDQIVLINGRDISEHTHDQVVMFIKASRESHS

[24] = target: T8, SHANK1, Q9Y566
T8 sequence (Q9Y566 658-767, limits assumed, looked up): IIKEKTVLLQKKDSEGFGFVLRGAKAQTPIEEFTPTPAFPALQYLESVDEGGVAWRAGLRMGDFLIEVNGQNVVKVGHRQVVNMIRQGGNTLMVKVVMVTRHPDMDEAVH

[25] = target: T9, TIAM2, Q8IVF5
T9 sequence (Q8IVF5 885-986, limits assumed, looked up): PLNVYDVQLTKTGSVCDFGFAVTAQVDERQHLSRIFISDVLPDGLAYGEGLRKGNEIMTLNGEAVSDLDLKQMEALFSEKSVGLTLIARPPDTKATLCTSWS

[26] = target: TJP1_3, Q07157
TJP1_3, Q07157, sequence (Q07157 416-512): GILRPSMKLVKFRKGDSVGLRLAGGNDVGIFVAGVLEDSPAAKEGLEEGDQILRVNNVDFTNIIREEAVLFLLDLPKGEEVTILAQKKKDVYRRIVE

[27] = target: T10, TJP3_3, O95049
T10 sequence (O95049 375-456, limits assumed, looked up): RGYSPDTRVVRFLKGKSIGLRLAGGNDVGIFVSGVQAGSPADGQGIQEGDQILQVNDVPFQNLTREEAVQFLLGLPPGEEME

[28] = plain residues with an end cap or a label only (N-terminal biotin on a linker: ado-ado)
[29] = modified: phospho on T at position -2 from the C-terminal residue

DLG2_2, Q15700, sequence (Q15700 189-283): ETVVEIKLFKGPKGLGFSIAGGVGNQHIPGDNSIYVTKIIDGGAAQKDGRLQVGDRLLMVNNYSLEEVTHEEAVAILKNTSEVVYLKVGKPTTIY

QLKSGRDSTV [TMEM178A, Q8NBL3]
pKd [1, 28]: below the threshold | pKd [2, 28]: 4.4 | pKd [3, 28]: 4.34 | pKd [4, 28]: 4.61 | pKd [5, 28]: 3.83 | pKd [6, 28]: below the threshold | pKd [7, 28]: below the threshold | pKd [8, 28]: below the threshold | pKd [9, 28]: below the threshold | pKd [10, 28]: below the threshold | pKd [11, 28]: below the threshold | pKd [12, 28]: 3.7 | pKd [13, 28]: 3.49 | pKd [14, 28]: 4 | pKd [15, 28]: 3.85 | pKd [16, 28]: below the threshold | pKd [17, 28]: below the threshold | pKd [18, 28]: below the threshold | pKd [19, 28]: below the threshold | pKd [20, 28]: 3.52 | pKd [21, 28]: below the threshold | pKd [22, 28]: 4.35 | pKd [23, 28]: 4.4 | pKd [24, 28]: below the threshold | pKd [25, 28]: below the threshold | pKd [26, 28]: 3.5 | pKd [27, 28]: 3.5

TKEIPNCTSV [SORCS3, Q9UPU3]
pKd [1, 28]: 4.05 | pKd [2, 28]: 4.1 | pKd [3, 28]: 4.26 | pKd [4, 28]: 4.28 | pKd [5, 28]: below the threshold | pKd [6, 28]: below the threshold | pKd [7, 28]: below the threshold | pKd [8, 28]: below the threshold | pKd [9, 28]: below the threshold | pKd [10, 28]: below the threshold | pKd [11, 28]: below the threshold | pKd [12, 28]: 4.28 | pKd [13, 28]: 4.52 | pKd [14, 28]: 4.29 | pKd [15, 28]: 4.43 | pKd [16, 28]: below the threshold | pKd [17, 28]: 4.36 | pKd [18, 28]: below the threshold | pKd [19, 28]: 4.2 | pKd [20, 28]: 3.57 | pKd [21, 28]: below the threshold | pKd [22, 28]: 4.17 | pKd [23, 28]: 4.74 | pKd [24, 28]: 3.92 | pKd [25, 28]: below the threshold | pKd [26, 28]: below the threshold | pKd [27, 28]: 3.54

SAGADSETHC [SLCO1B1, Q9Y6L6]
pKd [1, 28]: 3.55 | pKd [2, 28]: below the threshold | pKd [3, 28]: below the threshold | pKd [4, 28]: below the threshold | pKd [5, 28]: below the threshold | pKd [6, 28]: below the threshold | pKd [7, 28]: below the threshold | pKd [8, 28]: below the threshold | pKd [9, 28]: below the threshold | pKd [10, 28]: below the threshold | pKd [11, 28]: below the threshold | pKd [12, 28]: below the threshold | pKd [13, 28]: below the threshold | pKd [14, 28]: below the threshold | pKd [15, 28]: below the threshold | pKd [16, 28]: below the threshold | pKd [17, 28]: 3.68 | pKd [18, 28]: below the threshold | pKd [19, 28]: below the threshold | pKd [20, 28]: below the threshold | pKd [21, 28]: below the threshold | pKd [22, 28]: below the threshold | pKd [23, 28]: 4.01 | pKd [24, 28]: below the threshold | pKd [25, 28]: below the threshold | pKd [26, 28]: below the threshold | pKd [27, 28]: below the threshold

DYSNLRETDI [ADRA1D, P25100]
pKd [1, 28]: 3.91 | pKd [2, 28]: 4.35 | pKd [3, 28]: 3.89 | pKd [4, 28]: 4.54 | pKd [5, 28]: 3.5 | pKd [6, 28]: below the threshold | pKd [7, 28]: below the threshold | pKd [8, 28]: below the threshold | pKd [9, 28]: below the threshold | pKd [10, 28]: 3.59 | pKd [11, 28]: 3.73 | pKd [12, 28]: 3.56 | pKd [13, 28]: below the threshold | pKd [14, 28]: below the threshold | pKd [15, 28]: 4.31 | pKd [16, 28]: below the threshold | pKd [17, 28]: below the threshold | pKd [18, 28]: below the threshold | pKd [19, 28]: below the threshold | pKd [20, 28]: below the threshold | pKd [21, 28]: below the threshold | pKd [22, 28]: 4.1 | pKd [23, 28]: 4.57 | pKd [24, 28]: below the threshold | pKd [25, 28]: below the threshold | pKd [26, 28]: below the threshold | pKd [27, 28]: below the threshold

SRSRRRETAL [HPV33-E6_-2P, P06427]
pKd [1, 29]: 4.02 | pKd [2, 29]: below the threshold | pKd [3, 29]: below the threshold | pKd [4, 29]: below the threshold | pKd [5, 29]: below the threshold | pKd [6, 29]: below the threshold | pKd [7, 29]: below the threshold | pKd [8, 29]: below the threshold | pKd [9, 29]: below the threshold | pKd [10, 29]: below the threshold | pKd [11, 29]: below the threshold | pKd [12, 29]: below the threshold | pKd [13, 29]: below the threshold | pKd [14, 29]: below the threshold | pKd [15, 29]: below the threshold | pKd [16, 29]: below the threshold | pKd [17, 29]: below the threshold | pKd [18, 29]: below the threshold | pKd [19, 29]: 4.6 | pKd [20, 29]: 3.75 | pKd [21, 29]: below the threshold | pKd [22, 29]: below the threshold | pKd [23, 29]: 4.02 | pKd [24, 29]: below the threshold | pKd [25, 29]: below the threshold | pKd [26, 29]: below the threshold | pKd [27, 29]: below the threshold
